Experimental data: patent US20240254248A1 (JIANGSU HENGRUI MEDICINE, published 2024)
Like-named read-outs stand apart in the source and are kept apart here.

Experiments:
[1] = molecular target: T1, human CD40 (hCD40) (human, UniProt P25942 21-193); assay: ELISA blocking of hCD40/hCD40L binding
[2] = molecular target: T2, CD40 on HEK293-CD40 cells; assay: binding to HEK293-CD40 cells
T2 construct: whole, on cells

[3] = molecular target: T2, CD40 on HEK293-CD40 cells; assay: binding to HEK293-CD40 cells; remark: listed apart in the source
[4] = molecular target: T1, human CD40 (hCD40); assay: ELISA blocking of hCD40/hCD40L binding; remark: listed apart in the source

T1 sequence (P25942 21-193 limits assumed): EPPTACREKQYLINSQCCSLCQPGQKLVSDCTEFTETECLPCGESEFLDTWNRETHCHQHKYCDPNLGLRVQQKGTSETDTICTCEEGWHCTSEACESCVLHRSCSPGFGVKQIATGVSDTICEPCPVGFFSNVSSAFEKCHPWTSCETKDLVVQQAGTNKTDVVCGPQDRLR
T2 sequence (P25942 21-277): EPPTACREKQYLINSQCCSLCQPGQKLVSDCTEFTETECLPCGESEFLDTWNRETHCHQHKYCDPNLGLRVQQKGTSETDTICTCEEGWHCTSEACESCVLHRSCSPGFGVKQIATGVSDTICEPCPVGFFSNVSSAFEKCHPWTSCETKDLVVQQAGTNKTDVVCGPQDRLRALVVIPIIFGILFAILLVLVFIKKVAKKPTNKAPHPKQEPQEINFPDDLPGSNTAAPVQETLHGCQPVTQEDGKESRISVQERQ

Row | Binder | IC50 [1] | EC50 [2] | EC50 [3] | IC50 [4]
1 | human-murine chimeric antibody 9E5-C (antibody, IgG1, V domains shown, also called 9E5 chimeric antibody) VH: QVQLQQPGADLVKPGASVKMSCKASGYILTTYWITWVKQRPGQGLEWIGDIHPGSGSTKYNEKFKSKATLTVDTSSSTAYMQLTRLSSEDSAVYYCARRDYWGQGTTLTVSS VL: DVLMTQSPLSLPVSLGDQASISCRSSQNIVNSQGNTYLEWYLQKPGESPKLLIYKVTNRFSGVPDRFSGSGSGTDFTLKISRVEAEDLGVYYCFQASLVPWTFGGGTKLEIK | 0.122 mg/L | 0.0333 mg/L | – | –
2 | humanized antibody hu9E5 (H1c heavy chain and L1a light chain) (antibody, human IgG1, kappa, V domains shown, also called Hu9E5-25) VH: QVQLVQSGAEVKKPGASVKVSCKASGYILTTYWITWVRQAPGQGLEWMGDIHPGSGSTKYNEKFKSRVTLTVDTSISTAYMELSRLRSEDTAVYYCARRDYWGQGTTVTVSS VL: DIVMTQSPLSLPVTPGEPASISCRSSQNIVNSQGNTYLEWYLQKPGQSPQLLIYKVTNRFSGVPDRFSGSGSGTDFTLKISRVEAEDVGVYYCFQASLVPWTFGGGTKVEIKR | – | – | 0.14 mg/L | 0.308 mg/L
